Reference: a protein production outcome set (Wang et al. 2014)

Experiment: label from the status in PepcDB records

Protein production, failed:
MTQVYKAKFGTPNRGWVIIVHGLGEHSGRYSKLVSMLVNEGYAVYTFDWPGHGKSPGKRGHTSVEEAMEIIDFIIEEINDKPFLFGHSLGGLTVIRYAETRPEKIRGVIASSPALAKSPKTPSFMVALAKILGVLLPSLTLSNGIDPNLLSRNPDAVKRYIEDPLVHDRISAKLGRSIFKNMDLAHREAHKIKVPVLLLVGTGDVITPPEGARKLYGEIKVEDKEIVEFEGAYHEIFEDPEWGEEFHKKIVEWIKKH
MTRMQLHRLRYLLADVFGIVASYLSYNTLRYLTEEQERIYSTLSEYLFNAKSLWVGILYLLFWLSLFALSGYYNKPIAKSRISELLTTVASVLVGSVVVFLLLVVDDIVHDTALYLRLFFMMVATVLPWVYFPRLWVTTFGIKERKKTKGYHRVLLIGSGTIAEETASWLKSVNDMATTRLHFVPPTTREGFEQSLKSFATLVAEAVQESKPHQIILAVDCPDASFISLLLYQLYPFHMPVCVPMRSMLFAGAKVNVQGMKGEPMVDMTATNMSECAKSIKWFADRLFSLLMLILLIPVYAVIAVLVKRSSRGPVFFGQERIGLHGRPFTIYKFRTMYLDAEKDGPSLSFDGDSRVTPIGRILRKYRMDELPQFWNVLRGDMSFVGPRPERAFYIRQLVERAPYYYLLHNVRPGITSWGMVRYGYASTPDEMLERLQYDFLYYENMSLRLDIEVLLYTCQTIFKGLGK
MTRQLLIVPIVKLKNLLTGRWLRYAFLSVAGNALIWGTSIQYLKVTKPTYTSEFALILSGASFGVNVNLPGIGQATSSSSSAIGSSTYDARANYEYIFTSEAVLKKAAAIAKIPEEQFSKPRIKLLDNSTIMQFEVTGKSPKEAQNKSLALYQAMVHQITVLRTGEINQRKDPTQKTLLSSQQKLERAQKHLSEYKLRSGLSFPDQIGNLSSNIEQLRRQRAEAKAQENATNQKLQQLAKNIGLSPQEAADAFLLRVDQIFQQNLKDYSEATTTLEILMTKYGPNHPQVVKERIRQEAALAALLERSQILLEKPMTTTILNRLALAVNGSGRDTLFQNLVTYQSDQKGLQSQVKTLDSEIQRLEKRLEILSQRQSKLENLKRDVQIAEAMFASTLTKLDLGQGDIFAAYPLVQMLVEPNLPDQPTAPKKSFILAGSAAGSIFSTLGLCLVWIRKPWIEKLSKWLS
MTRRGGRLRTVLTVLTAWSALAGAALAGAAPAGGAPRSVPLAPGVEYTQFDIPADRGVTHAHLLSVDLADPRVRVGLLHPGAVAARAPVSRLADSQGALAGINGDFFNITETQHPGVEATGSTDGPAIADGHTLKAAVPNGQRFGPALPPGTTTEDVLGVGDDRRARLDRLALEGSVDTAAGELPLRGLNQYALPEGSVGAYTADWGSVSRARAVCGTDTDRAAPCSTDTYEVTVRDGQVVSFADSPGSGPIAAGTTVLVGREAGAQQLRKLSTGEEVSVEHRLVAAGSQVAYSFAIGGYPVLRQGKPLPGLDTVTSAVRTAVGIKDAGRRLLLLAIDGAAAYRSGLTIAEVASVMRGLGATEAFSLDGGGSTTLVARAPGATSVTVRNHPSGGAERPVPNGIGVFTRT
MTRTLTTPLPTAPRAKPARRPTTLLFAYGATLNPEHIMVRLCQPKIRAIARLPDYRLGFHGHSEVWDSGLETLVDEPGAEAWGVLYELSATELDRFDAWQGVKLDGGGSYFHYPVEVIDENGQLLDALFHRKTEMGPQQPASRDYLDFILAGARARGLPARAIAVLEACTAVQARYPVPKMNTDIKALASKLSCAC
MTRTPLTLEQLNALSDDAFTEHFAGVLEHSPHYARRAAAGRPFADVEEVAAAFARAVAADEPGAQVQLIRAHPDLAGKAALAGELTAESASEQTSAGLDRLSPEEYAEFQRLNAAYHERFGLPYVVCVRENTKDTIFEGARRRLTHTQEEEQAAALHEIGRIARLRILDLVQEGRQEKRMDGRLIRIPLEHHHHHH
MTRVPFTQNYRWHLPLLLLVFCCSFFINNGAIFADIMESRNIITAREMVYDHNWLVPTMNGELRLEKPPLPTWIAAITEMISPDNLPLQRAMAGFAAVMLVLFFYKFATKLTDNRTYALVSSLVLCTSYNIILMGRTATWDIYCHAFMIGAIYYLYLALRQNTCKWTYFIGAGIFMGLSFLGKGPVSFYALLLPFVCAYILYYRKETQMKGKWIALAVMILIGIVLSTWWYAYIYIYHQEMASYVFHKESSSWSNHNVRSWYYYWQFFLETGVWSLLTLTTLLVPFWKKRVESSKEYLFCLSWMLLILFFLSLLPEKKTRYLLPILLPAALTMGHLFVYWIRQAKQKMPQLKDRVLYRINAYLIVVAALALPIALYLFMYREGRMGTGMFVWLVVLFLTVAVWLFRSAFKLQPFSFLMGIVALFAVAELFVMPYIGSFVSNSDPKSISATRENPELQPLPFYHSKDEVLRIELVYEAHKKIGDMDLSNKEEIIKALPFVLISQKPAELLIPDSIRKDLNLRFIDCYDNNRWAKGHKRYDSVFISNVTIVEPIKEQ
MTRYLRLSGLEPFVLTPDIPFVNVGERTNVTGSARFRKLITNRDYAAALEVARDQVQNGAQILDVNMDEGLIDSKAAMVEFLNLIASEPDIARVPLMIDSSKWEVIEAGLKCVQGKPVVNSISLKEGEESFRRQAGLCLAYGAAVVVMAFDEEGQADSFARKTTICARAYRILVEEVGFPPEDIIFDPNVFAVATGIEEHDNYGVDFIEAARWIRANLPHAHVSGGVSNLSFSFRGNEPVREAMHAVFLYHAIRAGMDMGIVNAGQLAVYDQIDPDLREACEDVVLNRKPKQGGTATERLLALAER
MTSAFNAYTALALAIVSEVIASAFLQQSAQFTRPWPTLAMVLFYVASFYALSVAIRVIPLSIAYAIWGGVGIILTATVSFVLFRQMLDAAAFVGIGLIVSGVVIINLFSETTVH
MTSALNRLQPLNGNNMKLKTLLLFVALIQSVVSMAQQDWKGDYTRAKQVYQLQKYEIAMEYFLPVTSPDAANPYASYAQYYYSLSAYKAGKYNEARQMLLQLINRDPNWKQISEAHYLLAGVYFELKQYRFGMTSLTFVQGMESSVTTFRQSYYAKIAPLDTLIKLQRVYSSDKELAKALFNQLAAYPVNSKNNMLYEYLAQEFKFTKLNRTVTYVTKTEYHVAVILPFNLSESNSENYKSGYAYEMYQGILTAVDSLKEDGVTIKIHTYDADRDVMKIQAILNYPEMKGMDLIIGPLFPSLIPYVTNFGELNNIPVINPISFNSNIIENKTQTLLFQPTLESIAGQVSSFAKEKFVYRKNSSKDNDLKPKNNVLIFYSTELKDSLLAVYYRDSLQVKGFKVSKFVKVTKENIGTVGKIFSDSISLLTTSHVFVASGEPVLASNIVSALEISRQNVPVITKSDWLDINNQTYEQFERRNIYIIYPDYFAFYTDAYRSFKAAYIKKYNVYPSKYTIIGYELMSLVGDKMRTAGTGYFNLMRTSPVSKGHFTAGYDFSKKPCNNYVPIYYFSDLKLTLANPFDEK
MTSFDWFFVAAYLILSFGIALYFYQRAGEDTSEFFLSGRAMPWWLAGTSMVATTFAVDTPLLVTEIVAQNGIAGNWLWWNAAIGGMLTVFFFARLWRRSGVMTDVEFVEFRYSGRVAAWLRGLKALFFGLLLNILIIGWVSLAMETVIDRLFPDLTLFGQAAFSVLGREMSAALVVTGGLILLVSVYALLSGLWGVMVTDLFQFVVAMGGTIALAVLVLDMPEIGGVAGLREQLPDETFNLLPTIGGAAEGAATFSLSALAFAAYAGVQWWASWYPGAEPGGGGYIAQRMMSAKDEPNALFATLWYTIAHFCLRPWPWIIVALAALVLYPDLDEPRAGFVLVMKDVLPPGLLGLLFASFLAAFMSTVSTQLNWGVSYLVNDFWGRFVRPDADEAHYVRVSRVLTFGVALLSLVVTLFLDTIAEAWGLLLSASAGLGLVLILRWYWWRVNAWSEMAATLAPIGLTVAALVLNVFGVQVPGLQADFPLNLYSVVGFTTVVWLAATFLTRPTDAETLDAFYRTVHPGGPGWTPVAERHPDVTPDSGLGRLALDWLVGVVLVYSTLFGTGYLILGWTLWGAGCIAVALTAAAYLWRDLQRDEISLIEMKEEKDATEER
MTSFQSTLDDDEDGIAEELAASQREISVAEFFEKNKHMLGFDSGARGLVTAVKEAVDNALDATEEAGILPDIYVEISEGRDYYTLIVEDNGPGITNAQIPKIFGKLLYGSRFHAREQSRGQQGIGISAAVLYSQLTSGKPVRIESRTQDSETANVYELIIDTDTNEPEISAETEVSAAKSDLRGTHGTRIEMALDANMRARGQLHDYIKHTAVVNPHARIELQEPGGELKSERAEEASLPAETDEILPHPHGVELGTLIKMLAETDSHSVSGFLQSEFTRVGSKTATGIIDAFRDEHFGREMRWRPPADADLEATVADAVANKDATHTAVFARTVADAVRDADSIAPAELGALVADAAADAQDDTGTSFGETVQANVVAAVRDALTSDRVADVLGPVDEATTVQKDDATVRGLAERIAAKFESGGDTDRVTRDTLDEYVFRAAENTAEYADATIGETARENVADALWARMATVPDDPPNTSALADDRDAASDLLAAMASVNVMAPPTSCLSPIEADQLEAGLRTEFDADFYAAATRDADVHGGDPFIVEAGIAYGGDIDSEGGVQLMRFANRVPLVYQRGACATTDVLGDIGWRNYNLSQPGGSGLPQGPAVIMVHVASTNVPFTSESKDAIANVPEIEAEIELAVREAARELKSFLQKRQSMRKRQQKQDVIMDILPTMAEKVGELTGRGGVDVSDSLARIMNNVLVERARSDDGQTVTLRVENHGTGSVDVDVTDIVSAEPDGVGDDASVVAMDDEYFVKWTPAVAGDDAAELTYSVDADADCELSVSGVADARLTVSEADT
MTSGSRWDGIIPHPGILAFAMALYLLGFVLDASGRPLAYGFLTGDMVVHFFTFPGLREQFIDYLLATAFWIFISNITQVTVFIFSLATFYPVLKIFVLAGALLHNLLVGWGVRGLLIYAGTLHLHLEVTGCLLSLQAALVFVRSLLGTIQHRSRGPLVTALRENLAYLIPLIILLFAIAAILEVFWSTWWVYNLTHGPVSWRYFYTHVFSVEL
MTSPENPDLPDADDAYVDSGPGTQPASLEDLDMDSASTMRPMATQAVYRPEFDDTDGTSRGTVVTEAYDQVTMATRALSPMRRLGGGLVEIPRVPERDPLTALMTNPVVAESKRFCWNCGKPVGRSTPDGRALSEGWCPHCGSPYSFLPQLSPGDIVADQYEIKGCIAHGGLGWVYLAFDKNVNDRPVVLKGLVHSGDAEAQAIAMAERQFLAEVTHPGIVKIYNFVEHEDKHGNPVGYIVMEYVGGTSLKQARGAKLPVAEAIGYMLEILPALGYLHSIGLAYNDLKPENIMITEEQLKLIDLGAVSRLNSYGYLYGTPGYQAPEIVRTGPTVATDIYTVGRTLAALTLSLRTRRGRYVDGLPSDDPVLETYDSYHRLLRRAIDPDPRRRFTSAEEMSSQLLGVLREVVATDTGVPRPGLSTVFSPSRSTFGVDLLVAHTDVYVDGQVHSEKLTAQEIVRALPVPLVDRTDVGAPMLVASVLSEPVHTLDQLRAARHGALDTEGIDLNESVELPLMEVRALLDLGDVAKATRKLEDLAARVGWRWRLVWFKAVSEMLSADYDSATKHFTEVLDTLPGELAPKLALAATAELAGTADELKFYKTVWSTDNGVISAGFGLARAQSVAGERDMAVQTLDEVPPTSRHFTTARLTSAVTLLSGRSTSEITEQHIRDAARRVEALPDSEPRVLQIRALVLGTALDWLADNTASSNHILGFPFTEHGLKLGVEASLRALARIAPTQSHRYALVDLANSVRPMSTF
MTSPFHRLCRTTLAAGFLFGMASAALAVGDSNDDTNPPPKTETTKTCTGGKVWDKQRKECVTPKKNSFNDDDLYKFAREFAYAGQYENAITVLNLARNQNDPRILNYLGYANRKAGRMELGMSYYRKALQADENYILARSYMGMALVEQGDIQGARVQLVEIRDRGGEDTWAYRALLQSLNGYRTY
